Experimental data published in the DeepSol protein solubility set.

Test: soluble on expression in E. coli; label from the status in PepcDB or PDB records

Soluble on expression in E. coli, not soluble:
MLTNEQLAALRSRLLDMKRETEDRLKQNDHFGMIRSHAHDAVGELASYDNHPADEATELYEREKDLALKEHAERELREIERALGAIADGTYGTCRVCGRPIPYERLEALPTTLYCREHSPDQTVSQKRPLEEGVLMPPFGKFDFDDRAESVAYDAEDAWQEVARYGTSDTPSDLGKNVDSYSEVYAESEENVGYVEDLENFAAVDLHGQHVRVYPTREHELLENILDDEGIMSNIGDLPAYEKDPYTSKDSYRRYDERPSQQHFGETTP, MLTSEIAACCKKLRLSRNIVEMSGKIQADNHQEYLLKLLKSEIIHREKTRNAKLLRKAGFYTIKTFESFRFDEVTLPGDITPEYLKECEFVKNKTNIVMYGNVGTGKTHLSIALGVEACKRGYEVRFFRTSALVNKLAEEKRVGTLSSFLKKLNKAELLICDEWRYVPLDRIGAQLLFEVISERYENKAVIINTNIEFSRWVNIFYDEQMTGAIVDRILHHCHLLLFFGQSNRMRESRLNT, MLVEEAPVDADLGAAVTRLRALALEALCAGSLSAEQVLDHTRPAALALALAVCTPAEYARPWFRRATGDVRVLLARRLAEELGEDHVRWAAAIDLSGSFAGSVGELLHSDEAPGSVHRFLHPHRSSHATQNLLLALAPRDVAARYLAGLVETRRPNVVAYKMDWMLRSGPLSRPLVARGVGGSVGGQRELLGNDLCPDFVLEQVHGGYARHVMYREIIPPKVLKRAFRAYAASEPAHEVRAWAVSLLGERTDRLMDLAWSLTDAPTLLHRLVAAVLDRADPATLTCLYGALAEAAGPEPVWALDLERAGSLDAVQPAVRASMAAGSAEPLVEAAKRIPRRHWLDVLDEEAFGGQMLRDEAELDRTGHFPLEALVAARLDGRPERWAEVARQVAGGRMPVEAVVEGVVAAAIEEIGESAAKTAPETPTEAAPETTAEAAPQTPAEAAPQTPANAAPQTPTKPAPQPPAASPIAAPPAHAAPSASTT, MLVFISNSRLSESEVQKLRDKHLIDDFIQRENKGYDFAAWHDGMEFVGFENLKQYDSVTVMNDTCFGPLWDMAPIYDNYESNPNVDFWGMTNHQGIKAGDIYIHEHLQSYFISFKKRLVESSVFQKFWKSVESFEDVQKVIDNYETLYTKKFRDAGFNYESILNTIPLNDKFFHSNFTIHYPHVLLDTGVPFIKVKTFDLTQHLAPYLLKEIEKRTDYPVELILSHMSDMSLPTPPYLLDRKVIEKSSQTYSDTKKIAVHLHTYYVDLLEDFLKQFENFHFTYDLFLTTDSEDKKAEIQSILDKNGKVARIFITGNRGRDVIPMLKLKDELSAYDYIGHFHTKKSPEYPYWVGDSWRNELFSMLIQPADNIIANLERDDRLGLVIADIPSFFRYTKIVDPWNENRFAEGMNDLWERMDLGRDIDFDKMNTFIMSYGTFIWFKYDALKPLFDLDLQDEEIPAEPIPQHTILHSIERILVYLAWARRYDYAIAKNDIYITPFVDNVVLNIRPDTLPNTYINFDNIGGIKGALKYIIVGPLEHHHHHH, MLVLFEVAAGYAVFKLSNEKKLKNVDNIWEEFSTAEKAQENLQLVSFKKFKTTAGAVEATSEITEGKLSKTLKKLLKSSVDETEKLAVGDAKLGNLIKEKLSLNCVHDSSINELMRGVRAHIEDLLAEHKEEMNAMNLAVAHSLARYKVKFNPEKIDTMIVQAVSLLDDLDKELNNYVMRVREWYGWHFPELGKTIQDHQAYAKIIKAIGMRQNCINTDLSSILPEELEEKVKEDAEISMGTDISDIDLIHIKGLCDQVIELSAYRAQLFDYLKNRMTALAPNLTVLLGELVGARLISHAGSLVSLAKAPASTIQILGAEKALFRALKTKKDTPKYGLIYHAQLITQAPPKVKGKMARKLAAKCSLATRIDALSDESATNEIGIECRAALENVLRTESERGPSKNKSFGSHRHDKYEFKSETYEYDASADTPASRKHKRFDDNEESTNAIKKMKIEEVKEEDEAEPEKKKKKKEKKAKKADTDSDEE, MMCTKEFDYLNEANQATRFQNVWLPGRYTDCNHMKRKQEEVNGEENSTWRSSSSFQ, MMDFEDFGNPLAGKPLSQADKAAAVLLAMGKGVAGKLLKFFTQHELQMIISSAQTLRVIPPDELAQIVAEFEDLFTEGTGLMDNAKAIESILEEGLTPEEVDSLLGRRAAFQAYEASIWDRLQEAEPEFVGKFLLREHPQTIAYILSMLPSSFGAKVLLTIPEEQRADIMNRTVNMKEVSPTAAQIIEKRVVNLINEIEAERNAGGSTKVADLMNELDKPQVDTLLSSLETLSKEAANKVKPKIFLFDDLMFMPQRSRVLLLNDVSADVLTMALRGATVEIKECVLSSISPRQRRMIESDLAVPQASLNTREVAIARRAVAQEAIRLANSGQIQLKDVAAEEQSAAA
